Laboratory results published in IntAct's records for PubMed 16431923.

Target: ccnd1_human CCND1 (UniProt P24385)
Sequence (P24385 whole entry): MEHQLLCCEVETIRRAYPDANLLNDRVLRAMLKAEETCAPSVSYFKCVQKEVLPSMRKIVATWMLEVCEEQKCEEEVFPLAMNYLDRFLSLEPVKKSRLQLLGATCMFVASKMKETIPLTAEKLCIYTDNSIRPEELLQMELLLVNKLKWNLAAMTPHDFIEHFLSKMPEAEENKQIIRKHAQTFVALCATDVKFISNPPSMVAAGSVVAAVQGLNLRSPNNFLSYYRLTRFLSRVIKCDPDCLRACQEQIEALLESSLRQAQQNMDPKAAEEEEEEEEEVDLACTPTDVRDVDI

Nucleoprotein (Human SARS coronavirus), P59595 S207A;P208A;A209L;R210G
effect of a mutation on the interaction: decreasing interaction strength
